Experimental data from publication PMC10237670, “Biochemical properties of naturally occurring human bloom helicase variants”.

Legend:
[1] = target: T1, WT BLMcore (Homo sapiens, UniProt P54132 636-1298); experiment: EMSA; 5 mM MgCl2; smear; estimated apparent KD; 50 mM Tris-HCl pH 7.5, 50 mM KCl, 5 mM MgCl2, 1 mM DTT, 0.1 mg/mL BSA, 40 nM DNA, 30 min room temperature; 5% gel in TBE + 100 mM KCl at 4 C; conditions: protein: recombinant, (HisTrap purified)
[2] = target: T1, WT BLMcore; experiment: EMSA; 5 mM MgCl2; distinct shift; estimated apparent KD; 50 mM Tris-HCl pH 7.5, 50 mM KCl, 5 mM MgCl2, 1 mM DTT, 0.1 mg/mL BSA, 40 nM DNA, 30 min room temperature; 5% gel in TBE + 100 mM KCl at 4 C; conditions: protein: recombinant; (HisTrap purified); label: 3'-FAM on oAV320 (strand 2); 18 bp duplex, 3' overhang 39 nt on strand 1

T1 sequence (P54132 636-1298): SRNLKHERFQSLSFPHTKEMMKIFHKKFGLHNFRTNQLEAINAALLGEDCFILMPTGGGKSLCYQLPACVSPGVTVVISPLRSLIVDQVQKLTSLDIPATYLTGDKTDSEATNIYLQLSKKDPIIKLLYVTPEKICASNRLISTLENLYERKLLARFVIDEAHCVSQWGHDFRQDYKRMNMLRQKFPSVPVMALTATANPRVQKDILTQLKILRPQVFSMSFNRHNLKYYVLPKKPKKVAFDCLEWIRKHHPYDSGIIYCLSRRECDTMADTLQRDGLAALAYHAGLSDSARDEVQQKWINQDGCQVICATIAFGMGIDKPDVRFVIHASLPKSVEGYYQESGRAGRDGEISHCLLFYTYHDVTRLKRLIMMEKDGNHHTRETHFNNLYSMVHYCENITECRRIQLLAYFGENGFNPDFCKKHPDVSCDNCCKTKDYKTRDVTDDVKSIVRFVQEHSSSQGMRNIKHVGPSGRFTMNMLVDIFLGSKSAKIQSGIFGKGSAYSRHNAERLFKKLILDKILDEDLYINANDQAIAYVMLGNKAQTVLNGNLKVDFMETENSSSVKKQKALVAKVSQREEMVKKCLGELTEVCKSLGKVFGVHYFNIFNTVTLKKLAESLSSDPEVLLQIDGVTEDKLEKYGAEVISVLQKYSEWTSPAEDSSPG

Binder: GGGTTAGGGTTAGGGTTAGGGTTTTTTTTTT (structured_DNA) [G4 DNA with 3' ssDNA overhang (FAM-oRC96)]
- Kd ([1]; label: 3'-FAM, intramolecular G4 (folded in 100 mM KCl) with 3' T-rich ssDNA tail): ~125 nM

Binder: TTTTTTTTTTTTTTTTTTTTTTTTTTTTTT (ssDNA) [FAM-dT30 (ssDNA)]
- Kd ([1]; single strand): ~125 nM

B1: partial dsDNA with 3' ssDNA overhang (oRC32/FAM-oAV320) (dsDNA)
DNA 1: TGGCGACGGCAGCGAGGCTTAGGGTTAGCGTTAGCGTTAGGGTTTTTTTTTTTTTTT
DNA 2: GCCTCGCTGCCGTCGCCA
- Kd [2]: ~79 nM
